Measurements as given in the supplement of paper PMC12455559.
± gives the standard deviation of the averaged measurements.

What was measured:
[1] = PET hydrolysis, aromatic products released after 48 h (umol product/mg enzyme); higher = more PET depolymerization activity
How it was run: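 Hydrolysis activity toward PET is reported as supernatant aromatic product per mg enzyme. To measure it, 5 μg (50 μL) of tagless enzyme was incubated with 3.5 mg amorphous PET film or crystalline PET powder in 450 μL buffer for 48 h at 40 or 60 °C in sealed, unshaken plates. The product was quantified by absorbance at 260 and 280 nm relative to buffer blanks.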

[2] = melting temperature (DSF); higher = more thermostable
How it was run: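 After expression in E. coli C41(DE3), the candidate enzymes were bound to nickel beads and released with SUMO protease. Their melting temperature was found by differential scanning fluorimetry with Sypro Orange on a Bio-Rad CFX96. Each sealed PCR plate well held 45 μL enzyme (0 to 0.3 mg/mL) plus 5 μL 5X dye, and fluorescence was read for 250 cycles from 25 °C at 0.3 °C per cycle (ramp 0.3 °C/s).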

[3] = purified protein yield per well (BCA); higher = higher soluble expression
How it was run: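 Purified protein yield per well is reported, as measured by the Pierce Rapid Gold BCA kit. The enzymes came from E. coli C41(DE3) autoinduction cultures of 2 mL with 100 µg/mL kanamycin, held at 37 °C for 2 h and 18 °C for 40 h, then lysed and purified on Ni-charged magnetic beads with SUMO protease release. The detection threshold is 25 ug (0.1 mg/mL), and lower values are under it.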

[4] = substrate: aFilm, 40 °C, pH 4.5
[5] = substrate: aFilm, 40 °C, pH 5.5
[6] = substrate: aFilm, 40 °C, pH 6.5
[7] = substrate: aFilm, 40 °C, pH 7.5
[8] = substrate: aFilm, 60 °C, pH 4.5
[9] = substrate: aFilm, 60 °C, pH 5.5
[10] = substrate: aFilm, 60 °C, pH 6.5
[11] = substrate: aFilm, 60 °C, pH 7.5
[12] = substrate: cryPow, 40 °C, pH 4.5
[13] = substrate: cryPow, 40 °C, pH 5.5
[14] = substrate: cryPow, 40 °C, pH 6.5
[15] = substrate: cryPow, 40 °C, pH 7.5
[16] = substrate: cryPow, 60 °C, pH 4.5
[17] = substrate: cryPow, 60 °C, pH 5.5
[18] = substrate: cryPow, 60 °C, pH 6.5
[19] = substrate: cryPow, 60 °C, pH 7.5
[20] = substrate: aFilm, 40 °C, pH 8.5
[21] = substrate: aFilm, 60 °C, pH 8.5
[22] = substrate: cryPow, 40 °C, pH 8.5
[23] = substrate: cryPow, 60 °C, pH 8.5

| Sequence | PET hydrolysis [1, 4] | PET hydrolysis [1, 5] | PET hydrolysis [1, 6] | PET hydrolysis [1, 7] | PET hydrolysis [1, 8] | PET hydrolysis [1, 9] | PET hydrolysis [1, 10] | PET hydrolysis [1, 11] | PET hydrolysis [1, 12] | PET hydrolysis [1, 13] | PET hydrolysis [1, 14] | PET hydrolysis [1, 15] | PET hydrolysis [1, 16] | PET hydrolysis [1, 17] | PET hydrolysis [1, 18] | PET hydrolysis [1, 19] | melting temperature [2] | purified protein yield per well [3] | PET hydrolysis [1, 20] | PET hydrolysis [1, 21] | PET hydrolysis [1, 22] | PET hydrolysis [1, 23] |
| --- | --- | --- | --- | --- | --- | --- | --- | --- | --- | --- | --- | --- | --- | --- | --- | --- | --- | --- | --- | --- | --- | --- |
| DVNPFQRGPDPTAAGVAAARGPFATAQVTVPAGNGFGGGVVYYPTDTSQGTFGAIAIAPGYGTAWSYYAWQGPRLASFGFVVIGIETNTLNDYADARAAQLLAALDWLVTSSPVRDRVDRNRLAVGGHSMGGGGALLAAIQRPSLMTAIGMAPYVPGGDLSGIRIPTVLFAGQTDGTVTPSYALSAYTTIPGSVERAYVEIANEGHGFPAGGGGGNSGAFARTEMIWMKLFIDKDTRYAPFLCPSLSNMNGISRYQASCPLDPPGGTTPTPSATPTSSPTSTPTSTPSATSALRGAGSSRCLDVPGASQTNGTQLQIWDCNGQANQRWTSTSAGELRVYGGKCLDVNGAGTADGTSVIIWDCNGQNNQKWRLNSDGSITAVGANKCLDVSGAGTANGTKVQIWTCNGQANQRWTRT [ESM026] | < 3 | < 3 | < 3 | < 3 | < 3 | < 3 | < 3 | < 3 | < 3 | 4.5 ± 0.71 | 8.5 ± 0.71 | 9.5 ± 0.71 | < 3 | < 3 | < 3 | < 3 | 65.8 C | 305 µg | – | – | – | – |
| EEPASGYQRGPAPTTSSIESSRGPFSTSQVSISGLSANGFGGADVYYPTDTSQGTFGAVAISPGYTARKSSMAWLASRLASQGFVVINIDTNTTSDQPASRGRQLLAALDQVTKDSRVANRIDPTRLAVVGHSMGGGGALEASRSRPSLQAAIPLTPWNTTKSFSGNQVPTLVVGAERDTVASVRSHAEPFYRSLPSAPGKAYLELAGASHFAPNTSNTTIAKHSIAWLKLFVDNDERYRQFVCPGPTSDRAVSDYQNTCSSFTP [DP053] | – | < 3 | < 3 | < 3 | – | < 3 | < 3 | < 3 | – | < 3 | < 3 | < 3 | – | < 3 | < 3 | < 3 | 42.7 C | 235 µg | < 3 | < 3 | < 3 | < 3 |
| ENAIINGTYSLIVTQSGKALDTSQWGTIDGTNITLNDYWGGESQKFIITPVDGIWHRITPVIAPDQAFDVSKCSPNVGANIQTWSYEGGACQQFRFAETGNGTYQIITRGTDMSLNVNNLSEENDTNVMQSTSTGKENQIFTLRRHAESHISGNCPDGAICRDEEAPGLYDGKGPYNVRSYELPGAYVTLPATARVYYPANAEPPYSGIVFCPPFMTKQIAFAAWGPWFASHGMVLVTMDTTTIFDQVTARDNQQWRVVKALRRENTRLGSPLRGKLDTDKIGIMGWSMGGGASWINAGKHRDELKTVISLAGHNMTAWYNTDIYSWYSPEELLDAAYASGRLIKIPALIINGALDTTILGGLGQSDGVYRSISNTPKVLAVLGLAGHFAWGYPTQAGRGVASLVLAFEKTFLDGDTRWAPYIQKPSAPMRKWRTADLP [TEP050] | – | – | – | – | – | – | – | – | < 3 | < 3 | < 3 | < 3 | < 3 | < 3 | < 3 | < 3 | 46.3 C | 60.6 µg | – | – | – | – |
| ETEYRKGPDPTEATVTAALGPFATASVSVPSSVAGFGGGVIHYPTDTSQGTFGAVAVAPGFLGSSANYAWMGPRLASQGFVVFLINTDSRLDQPPSRGDQLLAALDYLVTSSSVRARIDASRLAVAGHSMGGGGTLEAATDRPGLQAAIPLQPWHTVKSWPNVQVPTLIIGAENDTTAPVASHAEPFYVSIPAAAEKAYLELNNAEHRVGTAGDTTQAKFMIVWLKRYVDNDTRYEQFICPPPPAPSSEIQEYRNTCPG [TEP171] | – | – | – | – | – | – | – | – | < 3 | < 3 | < 3 | < 3 | < 3 | < 3 | < 3 | < 3 | 44.2 C | 59.3 µg | – | – | – | – |
| FSAPGPSAPCSNCTRGPAPTVASLKASSGPFSTAKFSVSGYLKGFGNSTVYYPTNTSGKMGAIAVIPGYLSYESSIEWWGPRLASHGFVVMTMNTNSIYDQPDSRATQLSKALDYLISQSGSSSSPIYGKVDSSRLGAIGWSMGGGGSLKLSTQRSINAIIPQAPWYLGSNTFNTIKTPALILACSADTVAPVYQHASPFYNRIPTSTPKAFLEIYGGSHFCANSGYPNEDLLGMYGIAWMKRFIDFDSRYSQFLCGPNHESDYAISEYRQNCPY [ESM017] | – | – | – | – | – | – | – | – | < 3 | < 3 | 11 | 33 | – | – | – | – | 56.5 C | 53.8 µg | – | – | – | – |
| GETAQTTDVSAQSQFQRGPNPTVSSIEARTGHYRTSTTRVSSFASGFGGGTIYYPTTTSDGTFGGVAVAPGYTASSSTMDWLGPRIASQGFVVFVIDTNTRLDQPSSRGRQLLAALDYLTERSSERHRVDSNRLAVMGHSMGGGGALEATISRPSLKASIPLTPWNLTKNWSRVTTPTLIVGAENDSVASVRSHSIPFYTSLSSSTDRMYVELDGASHFAPNVSNTTIAKYSISWLKRFVDDDTRYDQFLCPLPNERAISDIRGNCPR [DP090] | – | < 3 | 5 ± 7.1 | 12 ± 7.1 | – | < 3 | < 3 | < 3 | – | < 3 | 7 | 12.5 ± 9.2 | – | < 3 | < 3 | 2 ± 2.8 | 51.4 C | 423 µg | 22 ± 17 | < 3 | 25.5 ± 0.71 | 2 ± 2.8 |
| GQAAVPVAVAGTSAFAKGPDPTEQSIQAQRGPFATAQRTVPSEAGRAFNRGTVHYPTDTSHGTYGAVVVSPGFFGPEFSVAWYGSTLASHGFVVLTLETNFLFDQPDARATQLLAGLDWLAARSPVKDRVDPNRLAVMGHSMGGGGTLIAASRNPALKAAIPLTPWNTSPDFSTVTVPTLVLGTDNDTVAPVARHADPMYASLRDKPDEGYVKLRGDHFTPIRYTAAATRFIVPWLKRYVDEDTRYSRFLCPLPAPDATLVSFELRCPV [DP040] | – | – | – | – | – | – | – | – | – | < 3 | 3 | < 3 | – | – | – | – | 40.3 C | 28 µg | – | – | < 3 | – |
| GQAPTTAAQVRASAFAKGPDPTEQTIKAQRGPFQIKQLSVAAQSGRGFNRGTIYYPTDTGQGTYGAIAVIPGFLEPEFITSWYGPTLASYGFVVMTLEPFAITDFPDPRSNQLLAAVDWLAADSPVKAQVDPNRLAVMGHSMGGGGALLAASKRPSLKAAVPLAPWNLYADFAGVTVPTLVIGADNDFIAPVGMHADPMYASIKASPNEGYLKLKNADHFTVNSYSATLTKFTVSWMKRYVDEDTRYTQFLCPAPQPDPSFASFQMTCPS [TEP173] | < 3 | < 3 | < 3 | < 3 | < 3 | < 3 | < 3 | < 3 | < 3 | < 3 | < 3 | < 3 | < 3 | < 3 | < 3 | < 3 | 41.2 C | 293 µg | – | – | – | – |
| GRVMAASDSGTAADERVYAEPSVDPASVGSAGRNPYERGPEPTLASVAAEYGPFDTDQLTVPPGHGFNGGYIYYPTDTSQTFGAVAIVPGYTALFADEEAWMGPRLASFGFVVIGIETNSRDDWDIARGEQLLAALDYLVHHSPVRARIDANRLAVVGHSMGGGGALFAATQRPSLKAVVALAPYFPSGSLAAIRVPTMIIGGQDDTVVTPSYLDDLYASRPAHTPGAYLMLADADHLFATRPNTVEMRLLIPWLKIFVDHDTRYTQFLCPVADRSGIARHHVT [TEP126] | – | – | – | – | – | – | – | – | < 3 | < 3 | < 3 | < 3 | < 3 | < 3 | < 3 | < 3 | 55.9 C | 166 µg | – | – | – | – |
| GSLAHIVMVDAYKPTKGSGASQTNPYARGPNPTAASLEASAGPFTVRSFTVSRPSGYGAGTVYYPTNAGGTVGAIAIVPGYTARQSSIKWWGPRLASHGFVVITIDTNSTFDYPSSRSSQQMAALRQVASLNGDSSSPIYGKVDTARMGVMGHSMGGGASLRSAANNPSLKAAIPQAPWDSQTNFSSVTVPTLIFACENDSIAPVNSHALPIYDSMSRNAKQFLEINGGSHSCANSGNSNQALIGKKGVAWMKRFMDNDTRYSTFACENPNSTAVSDFRTANCSLEGSGGSGAHIVMVDAYKPTK [TEP004] | – | – | – | – | – | – | – | – | 4 | 33 | 62 | 69 | < 3 | 14 | 76 | 82 | 73.9 C | 77.2 µg | – | – | – | – |
| GTTASATTVSGTQAAAAQEYRRGPDPTAQSVEAATGPFAIQQTSVPAGNGFGGGTIYYPTDTSQGTFGAIAISPGWTEDQSAIAWLGPKLASNGFVVMTINNNNAFLDFPDARGTQLLAALDSLTGQSPVAGRIDKNRLAVAGHSMGGGGALRAAATRPEIQAAIPLTPWHLNQDWSSVRVPTLIVGGETDIIASVGAHSEPFYESLTNAPERAYLEMEGQGHFVTNSANPTVGRYVLSWLKRYVDNDTRYEQFLCPAPAPSSVISEYRDSCPGS [DP018] | – | – | – | – | – | – | – | – | – | < 3 | < 3 | < 3 | – | < 3 | < 3 | < 3 | 66.1 C | 84 µg | – | – | < 3 | < 3 |
| LFDNNGNKKQAYDATLSALNAGGTPVSPSPSVSPTAGPSPSTSPSPSPPPGDNPYQRGPDPTRDSVAANRGTFATAEMSVSPGNGFNGGSIYYPTDTSQGTFGAVAIVPGYTARFADEEAWMGHWLASFGFVVIGVETNSTNDFDTARGTQLLAALDWLTQSSPVRDRIDASRQSVIGHSMGGGGALHAAGNRSSLKAAVGLTPFMPSGTPANNQVPTLMIAGTNDTVVAPSYVTDLYNALPSSTERAYMEFVGADHLFPTRPNNLEMRILIPWLKTFVDSDSRYTQFLCPLMDSSGIAGYRNSCPLLPDQPTPPPTPTPSPTTPTPDPTTPGPGTCTATMSTGQVWGDRYNTSVTVTGTSNWTVVVAITPPQRISATWNGNPTWDSSGNVMTIRANGNGNVFGFTTMFNGNSWARPQIRSCTAG [DP081] | – | < 3 | < 3 | < 3 | – | < 3 | < 3 | < 3 | – | 7.5 ± 0.71 | 21 ± 2.8 | 14.5 ± 0.71 | – | < 3 | < 3 | < 3 | 57.1 C | 244 µg | < 3 | < 3 | 12.5 ± 2.1 | < 3 |
